# Experimental data: patent US20190127440A1 (VIB VZW, published 2019)
# B1: human TSLP-trap1 (designed binder)
# chain: GAAEGVQIQIIYFNLETVQVTWNASKYSRTNLTFHYRFNGDEAYDQCTNYLLQEGHTSGCLLDAEQRDDILYFSIRNGTHPVFTASRWMVYYLKPSSPKHVRFSWHQDAVTVTCSDLSYGDLLYEVQYRSPFDTEWQSKQENTCNVTIEGLDAEKCYSFWVRVKAMEDVYGPDTYPSDWSEVTCWQRGEIRDACAETPTPPKPKLSKSRGGSGGSGGSGGSGGSGGSGGSGGSGGSGGSGGSGGSGGSGGSGGSGGSGGSGGSGGSGGSLQESGYAQNGDLEDAELDDYSFSCYSQLEVNGSQHSLTCAFEDPDVNTTNLEFEICGALVEVKCLNFRKLQEIYFIETKKFLLIGKSNICVKVGEKSLTCKKIDLTTIVKPEAPFDLSVIYREGANDFVVTFNTSHLQKKYVKVLMHDVAYRQEKDENKWTHVNLSSTKLTLLQRKLQPAAMYEIKVRSIPDHYFKGFWSEWSPSYYFRTPEINNSSGEMDGTKHHHHHH
# notes: Monomeric single chain fusion protein; Produced in T-REx-293 cells
# Experiments:
# [1] = biological target: full-length FLAG-tagged human TSLPR and full-length HA-tagged human IL-7Ralpha co-expressed on HEK293T cells (human) (UniProt Q9HC73); test: cell-based or functional assay
# [2] = biological target: T1, C-terminally biotinylated human TSLP_R127A_R130S (pHL-TSLP_R127A_R130S-AVITAG construct) (human, UniProt Q969D9 29-159, specific C-terminal in vivo biotinylation on the AVITAG); test: biolayer interferometry (Octet RED96), biotinylated TSLP on streptavidin biosensors, 1:1 model, average of three replicates
# T1 construct: Made in HEK293T cells with BirA co-transfection; immobilised on streptavidin biosensors for BLI; also called biotinylated TSLP; not shown: C-terminal AVITAG (and purification tag) of the pHL-AVITAG vector
# [3] = biological target: T1, C-terminally biotinylated human …; test: biolayer interferometry (Octet RED96), biotinylated TSLP on streptavidin biosensors, 1:1 model
# Protocol: All BLI experiments were performed in PBS buffer supplemented with 0.01% (w/v) BSA and 0.002% (v/v) Tween 20, with an Octet RED96 instrument (ForteBio), operating at 25° C.
# All data were fitted with the FortéBio Data Analysis 9.0.0.4 software using a 1:1 ligand model. The reported values for the fitted parameters represent the average (and standard deviation) from three replicate measurements.
# T1 sequence (Q969D9 29-159 R127A/R130S limits assumed): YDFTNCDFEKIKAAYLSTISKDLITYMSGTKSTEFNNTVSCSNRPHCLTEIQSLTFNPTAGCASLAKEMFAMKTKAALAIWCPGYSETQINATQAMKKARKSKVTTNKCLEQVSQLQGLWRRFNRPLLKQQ
# Chain of full-length FLAG-tagged human TSLPR and full-length HA-tagged human IL-7Ralpha co-expressed on HEK293T cells (human) (Q9HC73 23-371, chain 1 of 2): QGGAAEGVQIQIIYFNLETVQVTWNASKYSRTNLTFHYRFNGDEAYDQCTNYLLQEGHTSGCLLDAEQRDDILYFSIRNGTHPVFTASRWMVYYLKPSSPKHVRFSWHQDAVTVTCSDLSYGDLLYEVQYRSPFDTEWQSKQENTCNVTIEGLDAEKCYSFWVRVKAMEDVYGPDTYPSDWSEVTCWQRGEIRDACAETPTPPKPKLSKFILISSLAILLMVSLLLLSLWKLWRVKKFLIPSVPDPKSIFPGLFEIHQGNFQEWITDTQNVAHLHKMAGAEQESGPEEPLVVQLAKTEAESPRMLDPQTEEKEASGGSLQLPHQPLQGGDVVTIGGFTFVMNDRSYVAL
# Chain of full-length FLAG-tagged human TSLPR and full-length HA-tagged human IL-7Ralpha co-expressed on HEK293T cells (human) (P16871 21-459, chain 2 of 2, further chain): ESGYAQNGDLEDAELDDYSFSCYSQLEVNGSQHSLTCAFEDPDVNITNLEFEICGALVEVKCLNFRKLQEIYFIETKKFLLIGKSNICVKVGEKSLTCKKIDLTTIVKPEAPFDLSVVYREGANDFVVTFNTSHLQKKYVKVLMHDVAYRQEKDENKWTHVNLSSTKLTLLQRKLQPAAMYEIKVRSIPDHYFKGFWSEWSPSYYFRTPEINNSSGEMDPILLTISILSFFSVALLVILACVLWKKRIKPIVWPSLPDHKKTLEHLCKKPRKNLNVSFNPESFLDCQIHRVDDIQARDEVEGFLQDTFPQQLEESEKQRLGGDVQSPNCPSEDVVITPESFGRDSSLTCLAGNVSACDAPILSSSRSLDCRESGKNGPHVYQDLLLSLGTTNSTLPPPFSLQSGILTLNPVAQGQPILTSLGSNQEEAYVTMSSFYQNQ
Molecule,STAT5-dependent luciferase activity in HEK293T cells transfected with full-length TSLPR and IL-7Ralpha [1] [pM],Kd [2] [nM],kon [2] [M⁻¹ s⁻¹],koff [3] [s⁻¹]
"human TSLP_R127A_R130S, mammalian-cell derived recombinant, C-terminal His-tag (from UniProt Q969D9 29-159) (ligand)",9,–,–,–
B1,–,0.12,140000,1.72e-05
